The data set concerns the molecule itself. Nature of the data set: sedimentation assay.

For the protein Ac-KKWQQQQQQQQQQQQQQQQQQQQAKK-NH2 [Q20 peptide, K2WQ20AK2 (uninterrupted polyglutamine control)], the “Kn k+^2 (nucleation-elongation fit of sedimentation data)” value is 0.000235 M^−2s^−2.

B1: PG peptide, K2WQ10(D-Pro)GQ10AK2 (polyglutamine peptide interrupted by the beta-turn template D-ProGly) (peptide)
peptide: KKWQQQQQQQQQQPGQQQQQQQQQQAKK
HELM: PEPTIDE1{[ac].K.K.W.Q.Q.Q.Q.Q.Q.Q.Q.Q.Q.[dP].G.Q.Q.Q.Q.Q.Q.Q.Q.Q.Q.A.K.K.[am]}$$$$V2.0
SMILES: CC(=O)N[C@@H](CCCCN)C(=O)N[C@@H](CCCCN)C(=O)N[C@@H](Cc1c[nH]c2ccccc12)C(=O)N[C@@H](CCC(N)=O)C(=O)N[C@@H](CCC(N)=O)C(=O)N[C@@H](CCC(N)=O)C(=O)N[C@@H](CCC(N)=O)C(=O)N[C@@H](CCC(N)=O)C(=O)N[C@@H](CCC(N)=O)C(=O)N[C@@H](CCC(N)=O)C(=O)N[C@@H](CCC(N)=O)C(=O)N[C@@H](CCC(N)=O)C(=O)N[C@@H](CCC(N)=O)C(=O)N1CCC[C@@H]1C(=O)NCC(=O)N[C@@H](CCC(N)=O)C(=O)N[C@@H](CCC(N)=O)C(=O)N[C@@H](CCC(N)=O)C(=O)N[C@@H](CCC(N)=O)C(=O)N[C@@H](CCC(N)=O)C(=O)N[C@@H](CCC(N)=O)C(=O)N[C@@H](CCC(N)=O)C(=O)N[C@@H](CCC(N)=O)C(=O)N[C@@H](CCC(N)=O)C(=O)N[C@@H](CCC(N)=O)C(=O)N[C@@H](C)C(=O)N[C@@H](CCCCN)C(=O)N[C@@H](CCCCN)C(N)=O
As for B1, the “Kn k+^2 (nucleation-elongation fit of sedimentation data)” value came out at 0.127 M^−2s^−2.

With Ac-KKWQQQQQQQQQQAAQQQQQQQQQQAKK-NH2 [AA peptide, K2WQ10AAQ10AK2 (polyglutamine peptide interrupted by AlaAla)], the “Kn k+^2 (nucleation-elongation fit of sedimentation data)” value worked out at 0.000197 M^−2s^−2.

The values above are taken from paper PMC3170924 (Journal of molecular biology, 2011).
